Results reported in patent publication US20230265151A1, “GIP/GLP1 CO-AGONIST COMPOUNDS” (priority 2020, published 2023).

Columns and labels:
Test in all cases: cell-based or functional assay
[1] = target: human glucagon receptor (human) (UniProt P47871)
[2] = target: human glucagon-like peptide-1 (GLP-1) receptor (human) (UniProt P43220)
[3] = target: T1, human glucose-dependent insulinotropic polypeptide (GIP) receptor (human) (UniProt P48546)
T1 sequence (looked up): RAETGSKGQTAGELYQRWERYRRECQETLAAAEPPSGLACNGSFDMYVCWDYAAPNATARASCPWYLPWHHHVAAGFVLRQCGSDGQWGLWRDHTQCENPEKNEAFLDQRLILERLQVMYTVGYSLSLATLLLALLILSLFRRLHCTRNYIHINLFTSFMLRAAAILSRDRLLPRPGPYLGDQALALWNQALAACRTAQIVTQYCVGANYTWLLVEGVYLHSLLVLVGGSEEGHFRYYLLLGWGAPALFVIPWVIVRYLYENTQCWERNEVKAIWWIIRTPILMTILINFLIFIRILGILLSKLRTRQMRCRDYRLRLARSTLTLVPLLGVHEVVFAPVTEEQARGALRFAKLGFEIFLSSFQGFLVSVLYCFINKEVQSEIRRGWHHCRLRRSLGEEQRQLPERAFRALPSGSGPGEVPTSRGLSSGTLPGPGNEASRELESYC

[4] = target: T2, human GIP receptor (human, UniProt P48546 22-466)
T2 sequence (looked up): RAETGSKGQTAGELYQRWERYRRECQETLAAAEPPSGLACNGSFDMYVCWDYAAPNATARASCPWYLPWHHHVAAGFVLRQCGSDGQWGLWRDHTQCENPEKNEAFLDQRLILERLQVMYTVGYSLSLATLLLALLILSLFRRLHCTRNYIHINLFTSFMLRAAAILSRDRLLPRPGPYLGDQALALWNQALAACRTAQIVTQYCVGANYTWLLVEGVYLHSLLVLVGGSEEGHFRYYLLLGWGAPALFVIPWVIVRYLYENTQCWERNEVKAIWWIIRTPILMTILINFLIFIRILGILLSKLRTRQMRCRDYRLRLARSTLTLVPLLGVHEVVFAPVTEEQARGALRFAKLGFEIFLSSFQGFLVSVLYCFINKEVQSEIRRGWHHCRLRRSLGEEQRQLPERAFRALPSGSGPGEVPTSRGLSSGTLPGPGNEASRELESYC

[5] = target: human GLP-1 receptor (human, UniProt P43220 24-463)
[6] = target: human glucagon receptor (human, UniProt P47871 26-477)

| Binder | cAMP EC50 [1] | cAMP EC50 [2] | cAMP Emax [2] | cAMP EC50 [3] | cAMP Emax [3] | cAMP EC50 (1.0% HSA) [4] | cAMP Emax (1.0% HSA) [4] | cAMP EC50 (1.0% HSA) [5] | cAMP Emax (1.0% HSA) [5] | cAMP EC50 (1.0% HSA) [6] |
| --- | --- | --- | --- | --- | --- | --- | --- | --- | --- | --- |
| YXEGTXTSDXXIXLDXIAQXKFIXXLIKGGPSSGAPPPS (Y-Aib-EGT-αMeF(2F)-TSD-4Pal-Aib-I-αMeL-LD-Orn-IAQ-Aib-K((2-[2-(2-Amino-ethoxy)-ethoxy]-acetyl)2-(γ-Glu)-CO-(CH2)12-CO2H)FI-(D-Glu)-αMeY-LIK((2-[2-(2-Amino-ethoxy)-ethoxy]-acetyl)2-(γ-Glu)-CO-(CH2)12-CO2H)GGPSSGAPPPS-NH2) [Example 220] | > 9950 nM | 0.535 nM | 87.6% | 0.0237 nM | 91.6% | 11.6 nM | 83.5% | 150 nM | 110% | > 9950 nM |
| YXEGTXTSDXSIXLDXIAQXEFIXXLIKGGPSSGAPPPSK (Y-Aib-EGT-αMeF(2F)-TSD-4Pal-SI-αMeL-LD-Orn-IAQ-Aib-EFI-(D-Glu)-αMeY-LIK((2-[2-(2-Amino-ethoxy)-ethoxy]-acetyl)2-CO-(CH2)12-CO2H)GGPSSGAPPPSK((2-[2-(2-Amino-ethoxy)-ethoxy]-acetyl)2-CO-(CH2)12-CO2H)-NH2) [Example 223] | > 9950 nM | 1.43 nM | 94% | 0.0252 nM | 103% | 7.84 nM | 79.2% | 90.5 nM | 115% | > 9950 nM |
| YXEGTXTSDXSIXLDXIAQXEFIXXLIKGGPSSGAPPPSK (Y-Aib-EGT-αMeF(2F)-TSD-4Pal-SI-αMeL-LD-Orn-IAQ-Aib-EFI-(D-Glu)-αMeY-LIK((2-[2-(2-Amino-ethoxy)-ethoxy]-acetyl)3-(γ-Glu)-CO-(CH2)12-CO2H)GGPSSGAPPPSK((2-[2-(2-Amino-ethoxy)-ethoxy]-acetyl)3-(γ-Glu)-CO-(CH2)12-CO2H)-NH2) [Example 229] | > 9950 nM | 2.25 nM | 94.3% | 0.0253 nM | 103% | 7.35 nM | 80.5% | 135 nM | 99% | > 9950 nM |
| YXEGTXTSDYXIXLDXKAQXKFIXXLIEGGPSSGAPPPS (Y-Aib-EGT-αMeF(2F)-TSDY-Aib-I-αMeL-LD-Orn-K((2-[2-(2-Amino-ethoxy)-ethoxy]-acetyl)2-(γ-Glu)-CO-(CH2)12-CO2H)AQ-Aib-K((2-[2-(2-Amino-ethoxy)-ethoxy]-acetyl)2-(γ-Glu)-CO-(CH2)12-CO2H)FI-(D-Glu)-αMeY-LIEGGPSSGAPPPS-NH2) [Example 230] | > 9950 nM | 0.726 nM | 90.3% | 0.0199 nM | 105% | 2.57 nM | 85.8% | 49.7 nM |  | > 9950 nM |
| YXEGTXTSDYXIXLDXKAQXEFIXXLIKGGPSSGAPPPS (Y-Aib-EGT-αMeF(2F)-TSDY-Aib-I-αMeL-LD-Orn-K((2-[2-(2-Amino-ethoxy)-ethoxy]-acetyl)2-(γ-Glu)-CO-(CH2)12-CO2H)AQ-Aib-EFI-(D-Glu)-αMeY-LIK((2-[2-(2-Amino-ethoxy)-ethoxy]-acetyl)2-(γ-Glu)-CO-(CH2)12-CO2H)GGPSSGAPPPS-NH2) [Example 231] | > 9950 nM | 1.22 nM | 107% | 0.0184 nM | 102% | 2.46 nM | 85.4% | 51.8 nM |  | > 9950 nM |
| YXEGTXTSDYXIXLDXKAQXEFIXXLIEGGPSSGAPPPSK (Y-Aib-EGT-αMeF(2F)-TSDY-Aib-I-αMeL-LD-Orn-K((2-[2-(2-Amino-ethoxy)-ethoxy]-acetyl)2-(γ-Glu)-CO-(CH2)12-CO2H)AQ-Aib-EFI-(D-Glu)-αMeY-LIEGGPSSGAPPPSK((2-[2-(2-Amino-ethoxy)-ethoxyl-acetyl)2-(γ-Glu)-CO-(CH2)12-CO2H)-NH2) [Example 232] | > 9950 nM | 0.565 nM | 103% | 0.0192 nM | 101% | 1.86 nM |  | 33.6 nM | 95.4% | > 9950 nM |
| YXEGTXTSDYXIXLDXIAQXKFIXXLIKGGPSSGAPPPS (Y-Aib-EGT-αMeF(2F)-TSDY-Aib-I-αMeL-LD-Orn-IAQ-Aib-K((2-[2-(2-Amino-ethoxy)-ethoxy]-acetyl)2-(γ-Glu)-CO-(CH2)12-CO2H)Fl-(D-Glu)-αMeY-LIK((2-[2-(2-Amino-ethoxy)-ethoxy]-acetyl)2-(γ-Glu)-CO-(CH2)12-CO2H)GGPSSGAPPPS-NH2) [Example 234] | > 9950 nM | 0.319 nM | 112% | 0.0182 nM | 107% | 7.58 nM | 84.4% | 156 nM | 102% | > 9950 nM |
| YXEGTXTSDYXIXLDXIAQXKFIXXLIEGGPSSGAPPPSK (Y-Aib-EGT-aMeF(2F)-TSDY-Aib-I-aMeL-LD-Orn-IAQ-Aib-K((2-[2-(2-Amino-ethoxy)-ethoxy]-acetyl)2-(γ-Glu)-CO-(CH2)12-CO2H)FI-(D-Glu)-αMeY-LIEGGPSSGAPPPSK((2-[2-(2-Amino-ethoxy)-ethoxy]-acetyl)2-(γ-Glu)-CO-(CH2)12-CO2H)-NH2) [Example 235] | > 9950 nM | 0.295 nM | 104% | 0.0168 nM | 99.3% | 10.1 nM | 92.2% | 598 nM | 152% | > 9950 nM |
| YXEGTXTSDYXIXLDXKAQXKFIXXLIEGGPSSGAPPPS (Y-Aib-EGT-αMeF(2F)-TSDY-Aib-I-αMeL-LD-Orn-K((2-[2-(2-Amino-ethoxy)-ethoxy]-acetyl)2-(γ-Glu)-(10-(4-carboxyphenoxy)decanoyl))AQ-Aib-K((2-[2-(2-Amino-ethoxy)-ethoxy]-acetyl)2-(γ-Glu)-(10-(4-carboxyphenoxy)decanoyl))FI-(D-Glu)-αMeY-LIEGGPSSGAPPPS-NH2) [Example 236] | > 9950 nM | 0.336 nM | 96.5% | 0.0154 nM | 104% | 0.641 nM | 80.5% | 32.6 nM | 125% | > 9950 nM |
| YXEGTXTSDYXIXLDXKAQXEFIXXLIKGGPSSGAPPPS (Y-Aib-EGT-αMeF(2F)-TSDY-Aib-I-αMeL-LD-Orn-K((2-[2-(2-Amino-ethoxy)-ethoxy]-acetyl)2-(γ-Glu)-(10-(4-carboxyphenoxy)decanoyl))AQ-Aib-EFI-(D-Glu)-αMeY-LIK((2-[2-(2-Amino-ethoxy)-ethoxy]-acetyl)2-(γ-Glu)-(10-(4-carboxyphenoxy)decanoyl))GGPSSGAPPPS-NH2) [Example 237] | > 9950 nM | 0.633 nM | 102% | 0.0186 nM | 102% | 0.889 nM | 93.1% | 38.1 nM |  | > 9950 nM |
| YXEGTXTSDYXIXLDXKAQXEFIXXLIEGGPSSGAPPPSK (Y-Aib-EGT-αMeF(2F)-TSDY-Aib-I-αMeL-LD-Orn-K((2-[2-(2-Amino-ethoxy)-ethoxy]-acetyl)2-(γ-Glu)-(10-(4-carboxyphenoxy)decanoyl))AQ-Aib-EFI-(D-Glu)-αMeY-LIEGGPSSGAPPPSK((2-[2-(2-Amino-ethoxy)-ethoxy]-acetyl)2-(γ-Glu)-(10-(4-carboxyphenoxy)decanoyl))-NH2) [Example 238] | > 9950 nM | 1.03 nM | 107% | 0.0214 nM | 104% | 1.31 nM |  | 27.2 nM | 103% | > 9950 nM |
